The series in a line: label from the status in PepcDB records.
Consider “MSANDSAVNESCHCGGCGSSGNGKFLNETPMLDQLESGPWPSFISGFKALAERTEKPMLRGVLDQLEYSYKTKMGYWKGGLVTVDGYGAGIITRYSMIKDKFPEAAEFHTMRIQPAPGLHYNTTMLRELCDIWEKYGSGIITLHGQTGDIMLQGIEQDKVQACFDELNQKGWDLGGAGAGMRTGVSCIGPGRCDNACYDNLKLHLEALKHFSPQVHRPEWNYKLKFKFSGCPNDCTNAIMRSDLAVIGTWRDSIQIDHDEVKAWIAEKGVDALVNNVINRCPTKAIRLQDGDIDISTRDCVRCMHCINAMSKALSPGKDKGIALLIGGKNTLKVGVNMGSLIVPFMKMETDEDREAFIELIEEIIDWWDDAGLDHERIGETIERVGLKQFLDGVGIEYDINQISRPRDNPYFKAKY”, for which the protein production entry was “failed”.

With “DDGVVAAAAFDADRTDPDTLCVRYITVRQDRQGDRLGARLLRFVRERATERGFEHVSIGVNNPFSYQAAYRAGFCFSG”, the protein production entry is on record as “failed”. Next, “MGKVSFGFLGLMLVVVVIGVVECRRFEKETLGGGGGGGLGGGFGGGKGFGGGIGAGGGFGGGAGGGAGGGLGGGAGGGGGIGGGAGGGAGGGLGGGAGGGLGGGHGGGIGGGAGGGAGGGLGGGHGGGIGGGAGGGSGGGLGGGIGGGAGGGAGGGGGLGGGHGGGIGGGAGGGAGGGLGGGHGGGIGGGAGGGSGGGLGGGIGGGAGGGAGGGGGAGGGGGLGGGHGGGFGGGAGGGLGGGAGGGTGGGFGGGAGGGAGGGAGGGFGGGAGGGAGGGFGGGAGGGAGGGAGGGFGGGAGGGHGGGVGGGFGGGSGGGFGGGAGGGAGGGAGGGFGGGGGAGGGFGGGF”: “failed”; “MMALTMDFSTQLLEHQVTAILLLDDQRQIHYANPAAEQLFSQSAQRMAQHAFDDLFHSPQFDLSTLMLPLNTGQSVTDSDVRIMIDEQPLYIELTSSPVAINKSLYLLVEIRQIE”: “failed”; “MTDIRKAATLVVIRDGANKDIEVLVVRRAKTMRFLPGFVAFPGGAADPSDAEMAKRAFGRPVCAEDDDDPALAVTALRETAEEIGWLLAVRDGEGTKMDTPLAPDEQADLCKGGDALSAWLSARGLAFDLGLLRRIGRFVTPPTQPVRFDTRFFLCVGQHLGEPRLHGAELDAALWTPARDMLTRIQSGELPAVRPTIAVLKALVACPNAEIAMSTLSIGPLPPPAPRA”: “not failed”. As for “MMNTKVALKQLMATHFITVDVPCPECGGAMTAWKEPTPDTPPRCPPVCMECGYRSVKKKEATTAKNLYESSLIKKAKDYFLNGSVLTDRKSLHKKISNYYPSNQESTKAKNISMEFCEKTLLGEIHHLILTGGVGVGKSHLAIGCLNEILVKSNYSKKVLFVSYRELLEQLKFAMNDEEARKAITGVAMSEIKAADVVVLDDIGAELGDFNKRDEKGNLILSRASNFDIDTLTGILESRIDKPTIITSNLKSKEIKYCYGERIVSRMATHSNGFMHRFTNTKDYRLKTALEHHHHHH”, the protein production entry is reported as “not failed”. The same measure for “MTAAENIQEQLYPAPIKTVEEGSPAARAGVRPGDVLLRVNGQPVTDVLAYRHQLERGVVTLEVARPHEAPRVMTGVAGTAQDHHRLMLPQPPSLDETLTFTVEWEDPGLDFEEVLFDGIKKCANKCDFCYVHQMPRGFRKSLYIMDDDYRLSFLYGSFVTLTNLTEGDINRILDENLSPLYVSVHTANQDLRQDMMKWWKLKVKDPQAVQIREMIERLESIDLYTQIVLVPERNDRENLDETVEYLSSRPNVISAAVVPIGLTAHRTNLPDVRTFTPEEAQDTLRRLNVWRRKFLAERGTRFIFPSDELYLLAGEPLPTEEEYEGFPMLENGVGMIRDFLTEALPPLPAALPEPRKVILGTGLLFADSLARAIEPLRQIEGLDIEVRAIENKTFGKVTTVAGLLTGRCFRHAVQPGEADLLIVPPTTLRYGTELMIDDTSLGELRRELKMDVRAGGATLGELARVVLEGAQSSGHQFGMSAHAVKDSGRDDVAPSASRAQGGAAPEESLEEDVAESGMHGRGQA”: “failed”; for “MSLSRPLLFALTALSLTAASLAHAADKKAADKPAPSAVSKADKALHDKFLTLDTHLDTPAHFGRPGWDIADHHEVEHDFSQVDLPRMNQGGLDGGFFVVYIGQGELTEKGYTYARDYALHRTIEIREMLAANPDTFEMALTSDDARRIAKAGKKFAFVSMENSWPVGEDLSLVETFYKEGLRMAGPVHFRNNQLADSSTDPKGKIWNGYSPLGLRWLAEANRLGIVIDVSHASDDVVDQSVALSKAPIIASHSGPKAVYDHPRNLDDARLKKIADAGGAICINSIYLTDTTPSPERKAALEALGRAPDMKTATPEAVKAYADKRAAIDKAHPAARGDFDLYMKSMLHVLKVAGPKGVCVGADWDGGGGMDGFEDITDLPKITARLKAEGYSDADIEAIWSGNVLRIVDAAQAYAKSVTKEGHHHHHH”: “not failed”.

These data come from a protein production outcome set (Wang et al. 2014).
